Tests used:
[1] = target: Bombyx mori cadherin-like receptor BtR175, native, 175 kDa (Bombyx mori (endogenous in larval …)); experiment: SPR
[2] = target: Bombyx mori aminopeptidase N, native, 115-kDa (115-120 kDa) Cry1Aa-binding receptor (Bombyx mori (endogenous in larval …)); experiment: SPR

B1: Bacillus thuringiensis Cry1Aa toxin (trypsin-activated, wild type) (domain or fragment)
chain: not shown
Kd [1]: 2.6 nM
koff [1]: 3.3e-05 s⁻¹
kon [1]: 13000 ± 6.1 M⁻¹ s⁻¹
Kd [2]: 75 nM
koff [2]: 0.0015 s⁻¹
kon [2]: 20000 M⁻¹ s⁻¹

— publication PMC60004 (BMC Biochemistry, 2001)
